US20190062438A1 (CSL, published 2019)
Positions count from the first letter of the chain named. Like-named read-outs stand apart in the source and are kept apart here.

B1: 9A2-VR19 Fab (Fab, V domains shown)
VH: EVQLLESGGGLVQPGGSLRLSCAASGFTFSHYHMLWVRQAPGKGLEWVSSIRSSGGFTYYADSVKGRFTISRDNSKNTLYLQMNSLRAEDTAVYYCARFYDSFFDIWGQGTMVTVSS
VL: DIQMTQSPSSVSASVGDRVTITCRASQGISSWLAWYQQKPGKAPKLLIYAASSLQSGVPSRFSGSGSGTDFTLTISSLQPEDFATYYCGIPILGPITFGQGTRLEIKR
notes: recombinant Fab
B2: 9A2-VR39 (antibody, V domains shown)
VH: B1 VH with R52N, S53G, S54R, G56R, F57V
VL: B1 VL with G89Q, I90Q, P91A, I92N, L93S, G94F
B3: 9A2-VR24 (antibody, V domains shown)
VH: B1 VH with S30P, H31W, H33R, M34V, L35H
VL: B1 VL with G89Q, I90Q, P91A, I92N, L93S, G94F
B4: 9A2-VR27 Fab (Fab, V domains shown)
VH: B1 VH with S30T, H33R, M34V, L35H
VL: B1 VL with G89Q, I90Q, P91A, I92N, L93S, G94F
notes: recombinant Fab
B5: 9A2-VR21 Fab (Fab, V domains shown)
VH: B1 VH with S30M, H33R, M34V, L35H
VL: B1 VL with G89Q, I90Q, P91A, I92N, L93S, G94F
notes: recombinant Fab
B6: 9A2-VR41 Fab (Fab, V domains shown)
VH: B1 VH with R52N, S53G, S54K, G56W, F57T
VL: B1 VL with G89Q, I90Q, P91A, I92N, L93S, G94F
notes: recombinant Fab
B7: 9A2-VR36 Fab (Fab, V domains shown)
VH: B1 VH with R52G, S53G, S54D, G55K, G56R, F57Q
VL: B1 VL with G89Q, I90Q, P91A, I92N, L93S, G94F
notes: recombinant Fab
B8: 9A2-VR20 Fab (Fab, V domains shown)
VH: B1 VH with S30N, H33R, M34V, L35H
VL: B1 VL with G89Q, I90Q, P91A, I92N, L93S, G94F
notes: recombinant Fab
B9: 9A2-VR35 Fab (Fab, V domains shown)
VH: B1 VH with R52N, S53G, S54F, G56R, F57N
VL: B1 VL with G89Q, I90Q, P91A, I92N, L93S, G94F
notes: recombinant Fab
B10: 9A2-VR44 Fab (Fab, V domains shown)
VH: B1 VH with F103H
VL: B1 VL with G89Q, I90Q, P91A, I92N, L93S, G94F
notes: recombinant Fab
B11: 9A2-VR32 Fab (Fab, V domains shown)
VH: B1 VH with R52S, S53G, G55V, G56R, F57S
VL: B1 VL with G89Q, I90Q, P91A, I92N, L93S, G94F
notes: recombinant Fab
B12: 9A2-VR42 Fab (Fab, V domains shown)
VH: B1 VH with R52G, S53G, S54D, G55I, G56R, F57Q
VL: B1 VL with G89Q, I90Q, P91A, I92N, L93S, G94F
notes: recombinant Fab
B13: 9A2-VR39 Fab (Fab, V domains shown)
VH: B1 VH with R52N, S53G, S54R, G56R, F57V
VL: B1 VL with G89Q, I90Q, P91A, I92N, L93S, G94F
notes: recombinant Fab
B14: 9A2-VR26 Fab (Fab, V domains shown)
VH: B1 VH with S30I, H33R, M34V, L35H
VL: B1 VL with G89Q, I90Q, P91A, I92N, L93S, G94F
notes: recombinant Fab
B15: 9A2-VR24 Fab (Fab, V domains shown)
VH: B1 VH with S30P, H31W, H33R, M34V, L35H
VL: B1 VL with G89Q, I90Q, P91A, I92N, L93S, G94F
notes: recombinant Fab
B16: 9A2-VR40 Fab (Fab, V domains shown)
VH: B1 VH with R52N, S53G, S54Y, G56I, F57Q
VL: B1 VL with G89Q, I90Q, P91A, I92N, L93S, G94F
notes: recombinant Fab
B17: recombinant human GM-CSF (ligand, UniProt P04141 18-144, looked up)
chain: APARSYYSPSTQPWEHVNAIQEARRLLNLSRDTAAEMNETVEVISEMFDLQEPTCLQTRLELYKQGLRGSLTKLKGPLTMMASHYKQHCPPTPETSCATQIITFESFKENLKDFLLVIPFDCWEPVQE
modifications: radio-iodinated where used as label
notes: position probably counts on mature GM-CSF

What was measured:
[1] = molecular target: T1, soluble Homo sapiens CD131 comprising a C-terminal 6xHis tag (human, UniProt P32927 17-438); test: SPR, Fab over captured shCD131
T1 construct: truncated after Ser438, C-terminal 6xHis; also called shCD131; shβc
T1 sequence: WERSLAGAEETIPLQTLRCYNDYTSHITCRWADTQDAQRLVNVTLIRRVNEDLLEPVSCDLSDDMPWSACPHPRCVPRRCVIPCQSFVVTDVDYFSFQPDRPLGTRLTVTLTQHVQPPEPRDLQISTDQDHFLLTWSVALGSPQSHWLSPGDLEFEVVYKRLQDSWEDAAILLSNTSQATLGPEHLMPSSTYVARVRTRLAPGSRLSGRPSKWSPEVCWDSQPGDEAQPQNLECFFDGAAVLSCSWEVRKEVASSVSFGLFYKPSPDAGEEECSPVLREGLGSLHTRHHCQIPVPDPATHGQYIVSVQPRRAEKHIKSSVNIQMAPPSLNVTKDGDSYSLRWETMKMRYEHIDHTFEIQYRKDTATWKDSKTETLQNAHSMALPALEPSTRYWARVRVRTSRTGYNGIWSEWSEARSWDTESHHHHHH
Method: (§1) Binding kinetics were measured using SPR with a BIAcore™ A-100 instrument (GE Healthcare Life Sciences). An anti-C-terminal Hexa-His antibody (3H3) was immobilized on spots 1, 2, 4 and 5 of each flow cell of a CM-5 sensor chip (GE Healthcare Life Sciences) using amine-coupling chemistry (116). […] As shβc is a dimer, kinetics assays were performed with shβc captured on the sensor surface, and purified Fab injected as the analyte. Avidity effects were avoided by the use of Fab rather than whole IgG.
(§2) shCD131 was captured on spots 1 and 5 of each flow cell for 2 minutes at a concentration of 0.4 μg/ml. […] For some analysis purified Fab was injected over each flow cell for 3 minutes and dissociation was monitored for a further 10 minutes. Regeneration of the surface was performed after each cycle with a 40 second injection of 25 mM glycine, pH 2.0. The analysis was performed with Fabs at several concentrations between 100 and 0.31 nM, with each concentration analyzed twice and in random order. The analysis was performed at a flow rate of 30 μl/min in HBS-EP buffer (10 mM Hepes, 150 mM NaCl, 3 mM EDTA, 0.005% Tween 20, pH 7.4) at 37° C. Responses from spots 2 and 4 of each flow cell, (in which shβc was not captured, but otherwise treated identically), were subtracted from those of spots 1 and 5 respectively to produce reference subtracted data. Reference subtracted responses from a blank injection comprising buffer alone were subtracted from the resultant sensorgrams to produce double referenced data suitable for kinetic analysis. Double-referenced sensorgrams were fitted using non-linear regression to a model describing 1:1 kinetics, including a term for mass transport limitation. The Rₘₐₓ value was fitted locally to account for slight deviations in the level of sCD131 captured, with association rate (kₐ), dissociation rate (kd) and equilibrium dissociation constant (KD) fitted globally.

[2] = molecular target: T2, human CD131 (human, UniProt P32927 17-897); test: cell-based or functional assay
T2 sequence: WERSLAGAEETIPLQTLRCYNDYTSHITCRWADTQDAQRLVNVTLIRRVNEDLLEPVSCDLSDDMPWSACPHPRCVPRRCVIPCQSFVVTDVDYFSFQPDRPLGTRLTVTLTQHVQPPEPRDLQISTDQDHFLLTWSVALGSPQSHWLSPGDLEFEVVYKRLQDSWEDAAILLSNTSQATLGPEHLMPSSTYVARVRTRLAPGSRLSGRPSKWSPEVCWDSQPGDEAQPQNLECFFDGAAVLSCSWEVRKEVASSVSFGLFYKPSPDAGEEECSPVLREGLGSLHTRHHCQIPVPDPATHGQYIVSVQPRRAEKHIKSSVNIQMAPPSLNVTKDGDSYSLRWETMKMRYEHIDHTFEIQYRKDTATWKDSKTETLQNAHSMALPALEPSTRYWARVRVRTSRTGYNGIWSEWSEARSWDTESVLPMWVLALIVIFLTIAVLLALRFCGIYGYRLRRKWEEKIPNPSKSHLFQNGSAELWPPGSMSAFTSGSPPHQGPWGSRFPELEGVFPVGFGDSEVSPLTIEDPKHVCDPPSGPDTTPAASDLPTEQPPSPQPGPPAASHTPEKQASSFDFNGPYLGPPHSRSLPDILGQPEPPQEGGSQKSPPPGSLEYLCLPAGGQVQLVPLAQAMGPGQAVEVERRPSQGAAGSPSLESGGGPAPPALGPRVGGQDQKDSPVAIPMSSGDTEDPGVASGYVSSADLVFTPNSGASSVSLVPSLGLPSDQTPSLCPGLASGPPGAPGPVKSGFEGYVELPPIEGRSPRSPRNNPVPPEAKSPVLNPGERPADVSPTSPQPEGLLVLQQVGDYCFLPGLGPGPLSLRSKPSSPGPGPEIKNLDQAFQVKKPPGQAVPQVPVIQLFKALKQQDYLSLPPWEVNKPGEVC

[3] = molecular target: T2, human CD131; test: cell-based or functional assay; remark: listed apart in the source
[4] = molecular target: T2, human CD131; test: cell-based or functional assay; remark: listed apart in the source
[5] = molecular target: T1, soluble Homo sapiens CD131 comprising a …; test: SPR, Fab over captured shCD131; remark: listed apart in the source
Method: as §1, §2

[6] = molecular target: T2, human CD131; test: competition binding on TF-1 cells: cells pre-incubated with the cytokine, then equilibrated with 85 pM radio-iodinated 9A2-VR24.29; cell-bound c.p.m.
Method: Each point is the mean of duplicate determinations of cell-bound radioiodinated cytokine and error bars represent the standard deviation.
Cytokines and antibodies were radio-iodinated using Pierce Pre-Coated Iodination tubes (Thermo Scientific) according to the manufacturer's instructions. MAb binding to cells expressing hβc was determined by incubating 1-2×10⁶ cells with radio-iodinated mAb at a range of concentrations at 23° C. for 1-2 hours with gentle mixing. Cell suspensions were then centrifuged through fetal calf serum (FCS) and radioactivity associated with the cells pellets was assessed by counting in a Wizard² 2470 Automatic Gamma Counter (Perkin Elmer, Rowville, VIC, Australia). Non-specific binding was assessed for each radio-iodinated mAb in the presence of at least a 500-fold excess of unlabeled mAb. […] Competition binding assays were performed essentially as previously described (41). Briefly 1-2×10⁶ cells were incubated with mAb or cytokine competitor at a range of concentrations at 4° C. for 45 minutes with gentle mixing. Radio-iodinated cytokine or mAb was then added and the mixture incubated at 23° C. for a further 1-2 hours with gentle mixing. Cell suspensions were then centrifuged through FCS and radioactivity associated with the cells pellets assessed by counting.

Kd [1] [nM] | koff [1] [s⁻¹] | kon [1] [M⁻¹ s⁻¹] | other results | Binder
30 | – | – | – | B1
– | – | – | fold improvement in GM-CSF potency over parental 9A2 [2]: 518 fold; IC50 GM-CSF, TF-1 proliferation [3]: 0.88 nM; IC50 GM-CSF, TF-1 proliferation [4]: 0.88 nM; pStat5 IC50 GM-CSF, TF-1 bla reporter [4]: 4.1 nM | B2
– | – | – | fold potency improvement (GM-CSF) over parental 9A2 [2]: 182 fold; IC50 GM-CSF, TF-1 proliferation [3]: 2.5 nM; IC50 GM-CSF, TF-1 proliferation [4]: 2.5 nM; IC50 IL-3, TF-1 proliferation [4]: 0.726 nM; IC50 IL-5, TF-1 proliferation [4]: 23.5 nM; pStat5 IC50 GM-CSF, TF-1 bla reporter [4]: 8.6 nM | B3
0.47 | 0.0011 | 2.3e+06 | – | B4
0.39 | – | – | – | B5
0.46 | 0.00076 | 1.7e+06 | – | B6
0.3 | – | – | – | B7
0.58 | – | – | – | B8
0.34 | – | – | – | B9
5 | – | – | – | B10
0.34 | – | – | – | B11
0.38 | – | – | – | B12
0.27 | 0.00059 | 3e+06 | fold improvement in binding affinity over parental 9A2 [1]: ~180 fold; Kd [5]: 0.27 nM; koff [5]: 0.00059 s⁻¹; kon [5]: 3e+06 M⁻¹ s⁻¹ | B13
0.23 | 0.00055 | 2.4e+06 | – | B14
0.46 | 0.0011 | 2.3e+06 | fold decrease in dissociation rate (kd) compared to parental 9A2 [1]: 87 fold; fold decrease in the dissociation rate (kd) compared to parental 9A2 [1]: 87 fold; fold higher affinity compared to parental 9A2 [1]: 106 fold; Kd [5]: 0.46 nM; koff [5]: 0.0011 s⁻¹; kon [5]: 2.3e+06 M⁻¹ s⁻¹ | B15
0.52 | 0.00066 | 1.3e+06 | – | B16
– | – | – | IC50 (read off the curve) [6]: ~0.03 nM | B17
